In US20250002576A1:

What was measured:
[1] = molecular target: human Claudin 18.2 (human) (UniProt P56856); assay: flow cytometry, antibody dilution series on hCLDN18.2-expressing MiaPaCa-2 cells
lysozyme = assay: non-specific binding ELISA, lysozyme immobilized

EC50 [1]: 8.63 nM | normalized signal (fluorescence intensity normalized to trastuzumab) (lysozyme): 0.9
Substance: claudiximab (antibody)
